Fraction ligated data for 34 variants are collected here from the supplement of paper PMC6755084.

First the molecules themselves.
B1: F1*; the commonest letter at each place (parent)
chain: GAGACCGCAACTGAAAAGTTGTTATCACTTGTCGTAAGACACTTTGGATGGGTTGAAGTTCTGCACGTAGAAGCAAAAGGC

The data set covers variants of B1. The data set can be described thus: fraction ligated after 30 min (ligated reads / total reads); higher = more ligase activity. The conditions noted are these: with F1*sub RNA substrate (template-directed ligation), 42 °C. Put shortly:
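Templates from an oligo pool were PCR-amplified, transcribed with T7 and gel-purified to give the ribozyme variants. Ligated and unligated products were separated on gel, reverse transcribed using barcoded primers, and read on a MiSeq. A quality filter of ≥20 was applied to core bases. Fraction ligated was taken as ligated reads as a share of all reads per variant.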
Regarding GAGACCGCAACTGAAAAGTTGTTATCACATGTCGTAAGGCACTTTGGATGGGTTGAAGTTCTGCACGTAGAAGCAAAAGGC [T29A A39G], the fraction ligated stood at 0.845.

For the variant GAGACCGCAACTGAAAAGTTGTTATCACATGTCGTAAGTCACTTTGGATGGGTTGAAGTTCTGCACGTAGAAGCAAAAGGC [T29A A39T], the fraction ligated is 0.831.

GAGACCGCAACTGAAAAGTTGTTATCACATGTCGTAAGCCACTTTGGATGGGTTGAAGTTCTGCACGTAGAAGCAAAAGGC [T29A A39C]: the fraction ligated stood at 0.82.

Consider GAGACCGCAACTGAAAAGTTGTTATCACATGTCGTAAGACATTTTGGATGGGTTGAAGTTCTGCACGTAGAAGCAAAAGGC [T29A C42T], for which the fraction ligated stood at 0.826.

For GAGACCGCAACTGAAAAGTTGTTATCACATGTCGTAAGACAATTTGGATGGGTTGAAGTTCTGCACGTAGAAGCAAAAGGC [T29A C42A], the fraction ligated was 0.86.

For the variant GAGACCGCAACTGAAAAGTTGTTATCACATGTCGTAAGACAGTTTGGATGGGTTGAAGTTCTGCACGTAGAAGCAAAAGGC [T29A C42G], the fraction ligated was determined as 0.867.

As for GAGACCGCAACTGAAAAGTTGTTATCACACGTCGTAAGACACTTTGGATGGGTTGAAGTTCTGCACGTAGAAGCAAAAGGC [T29A T30C], the fraction ligated came to 0.856.

For GAGACCGCAACTGAAAAGTTGTTATCACAGGTCGTAAGACACTTTGGATGGGTTGAAGTTCTGCACGTAGAAGCAAAAGGC [T29A T30G], the fraction ligated was 0.828.

As to GAGACCGCAACTGAAAAGTTGTTATCACAAGTCGTAAGACACTTTGGATGGGTTGAAGTTCTGCACGTAGAAGCAAAAGGC [T29A T30A], the fraction ligated stood at 0.86.

As to GAGACCGCAACTGAAAAGTTGTTATCACATGTCGCAAGACACTTTGGATGGGTTGAAGTTCTGCACGTAGAAGCAAAAGGC [T29A T35C], the fraction ligated stood at 0.828.

In the case of GAGACCGCAACTGAAAAGTTGTTATCACATGTCGAAAGACACTTTGGATGGGTTGAAGTTCTGCACGTAGAAGCAAAAGGC [T29A T35A], the fraction ligated was determined as 0.821.

As for GAGACCGCAACTGAAAAGTTGTTATCACATGTCGGAAGACACTTTGGATGGGTTGAAGTTCTGCACGTAGAAGCAAAAGGC [T29A T35G], the fraction ligated stood at 0.834.

Regarding GAGACCGCAACTGAAAAGTTGTTATCACATGTCTTAAGACACTTTGGATGGGTTGAAGTTCTGCACGTAGAAGCAAAAGGC [T29A G34T], the fraction ligated worked out at 0.842.

Take GAGACCGCAACTGAAAAGTTGTTATCACATGTCCTAAGACACTTTGGATGGGTTGAAGTTCTGCACGTAGAAGCAAAAGGC [T29A G34C]: the fraction ligated was found to be 0.816.

As for GAGACCGCAACTGAAAAGTTGTTATCACATGTCATAAGACACTTTGGATGGGTTGAAGTTCTGCACGTAGAAGCAAAAGGC [T29A G34A], the fraction ligated was 0.852.

As for GAGACCGCAACTGAAAAGTTGTTATCACATGTCGTAAGACACTGTGGATGGGTTGAAGTTCTGCACGTAGAAGCAAAAGGC [T29A T44G], the fraction ligated worked out at 0.812.

In the case of GAGACCGCAACTGAAAAGTTGTTATCACATGTCGTAAGACACTCTGGATGGGTTGAAGTTCTGCACGTAGAAGCAAAAGGC [T29A T44C], the fraction ligated was determined as 0.825.

GAGACCGCAACTGAAAAGTTGTTATCACATGTCGTAAGACACTATGGATGGGTTGAAGTTCTGCACGTAGAAGCAAAAGGC [T29A T44A]: the fraction ligated was found to be 0.833.

For the variant GAGACCGCAACTGAAAAGTTGTTATCACATGTCGTAAGACACCTTGGATGGGTTGAAGTTCTGCACGTAGAAGCAAAAGGC [T29A T43C], the fraction ligated turned out to be 0.804.

As to GAGACCGCAACTGAAAAGTTGTTATCACATGTCGTAAGACACATTGGATGGGTTGAAGTTCTGCACGTAGAAGCAAAAGGC [T29A T43A], the fraction ligated came to 0.84.

For GAGACCGCAACTGAAAAGTTGTTATCACATGTCGTAAGACACGTTGGATGGGTTGAAGTTCTGCACGTAGAAGCAAAAGGC [T29A T43G], the fraction ligated came to 0.85.

Consider GAGACCGCAACTGAAAAGTTGTTATCACATGTCGTAAGACACTTTGGCTGGGTTGAAGTTCTGCACGTAGAAGCAAAAGGC [T29A A48C], for which the fraction ligated was determined as 0.761.

With GAGACCGCAACTGAAAAGTTGTTATCACATGTCGTAAGACACTTTGGGTGGGTTGAAGTTCTGCACGTAGAAGCAAAAGGC [T29A A48G], the fraction ligated worked out at 0.803.

Turning to GAGACCGCAACTGAAAAGTTGTTATCACATGTCGTAAGACACTTTGGTTGGGTTGAAGTTCTGCACGTAGAAGCAAAAGGC [T29A A48T], the fraction ligated stood at 0.801.

For the variant GAGACCGCAACTGAAAAGTTGTTATCACATGTCGTAACACACTTTGGATGGGTTGAAGTTCTGCACGTAGAAGCAAAAGGC [T29A G38C], the fraction ligated came to 0.851.

Take GAGACCGCAACTGAAAAGTTGTTATCACATGTCGTAATACACTTTGGATGGGTTGAAGTTCTGCACGTAGAAGCAAAAGGC [T29A G38T]: the fraction ligated amounted to 0.87.

For GAGACCGCAACTGAAAAGTTGTTATCACATGTCGTAAAACACTTTGGATGGGTTGAAGTTCTGCACGTAGAAGCAAAAGGC [T29A G38A], the fraction ligated came out at 0.85.

Take GAGACCGCAACTGAAAAGTTGTTATCACATGTCGTAAGACACTTTGGATAGGTTGAAGTTCTGCACGTAGAAGCAAAAGGC [T29A G50A]: the fraction ligated was determined as 0.295.

Turning to GAGACCGCAACTGAAAAGTTGTTATCACATGTCGTAAGACACTTTGGATTGGTTGAAGTTCTGCACGTAGAAGCAAAAGGC [T29A G50T], the fraction ligated is 0.585.

In the case of GAGACCGCAACTGAAAAGTTGTTATCACATGTCGTAAGACACTTTGGATCGGTTGAAGTTCTGCACGTAGAAGCAAAAGGC [T29A G50C], the fraction ligated stood at 0.195.

Regarding GAGACCGCAACTGAAAAGTTGTTATCACATGTCGTAAGACACTTTGGATGGGTTGATGTTCTGCACGTAGAAGCAAAAGGC [T29A A57T], the fraction ligated was found to be 0.813.

Turning to GAGACCGCAACTGAAAAGTTGTTATCACATGTCGTAAGACACTTTGGATGGGTTGACGTTCTGCACGTAGAAGCAAAAGGC [T29A A57C], the fraction ligated is 0.818.

GAGACCGCAACTGAAAAGTTGTTATCACATGTCGTAAGACACTTTGGATGGGTTGAGGTTCTGCACGTAGAAGCAAAAGGC [T29A A57G]: the fraction ligated came out at 0.818.

Take GAGACCGCAACTGAAAAGTTGTTATCACATGACGTAAGACACTTTGGATGGGTTGAAGTTCTGCACGTAGAAGCAAAAGGC [T29A T32A]: the fraction ligated was found to be 0.869.
